The target of this assay is IL-4 receptor alpha (IL-4Ra) (UniProt P24394). In words: cell-based or functional assay.
IL-4 receptor alpha (IL-4Ra), sequence (P24394 26-825 limits assumed): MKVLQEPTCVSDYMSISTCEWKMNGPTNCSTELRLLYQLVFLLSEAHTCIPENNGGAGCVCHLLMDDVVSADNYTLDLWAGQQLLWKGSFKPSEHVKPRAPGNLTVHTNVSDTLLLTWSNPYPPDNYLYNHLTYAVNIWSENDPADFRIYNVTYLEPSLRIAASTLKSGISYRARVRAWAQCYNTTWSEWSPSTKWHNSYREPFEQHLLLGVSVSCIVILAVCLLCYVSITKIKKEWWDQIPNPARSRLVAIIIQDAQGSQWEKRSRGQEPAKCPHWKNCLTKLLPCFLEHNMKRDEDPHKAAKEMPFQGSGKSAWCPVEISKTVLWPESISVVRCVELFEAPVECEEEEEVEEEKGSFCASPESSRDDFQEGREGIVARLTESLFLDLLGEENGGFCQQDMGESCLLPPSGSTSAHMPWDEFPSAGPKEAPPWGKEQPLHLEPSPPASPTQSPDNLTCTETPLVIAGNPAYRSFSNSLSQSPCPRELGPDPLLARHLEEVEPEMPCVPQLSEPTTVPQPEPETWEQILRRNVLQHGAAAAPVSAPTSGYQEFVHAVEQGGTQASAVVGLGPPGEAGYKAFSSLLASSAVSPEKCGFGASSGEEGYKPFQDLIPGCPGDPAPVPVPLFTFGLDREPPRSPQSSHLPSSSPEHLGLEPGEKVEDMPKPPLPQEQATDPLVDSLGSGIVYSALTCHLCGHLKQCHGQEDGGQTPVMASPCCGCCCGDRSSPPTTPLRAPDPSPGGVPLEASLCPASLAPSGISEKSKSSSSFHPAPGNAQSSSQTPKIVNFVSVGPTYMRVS

For the substance “IL-4 double mutant K77A/K84A (from UniProt P05112 25-153) (ligand)”, the Conc needed for 50% growth (TF1.8 Bioassay), average stood at 1.69 ng/mL. “IL-4 double mutant K77A/R53A (from UniProt P05112 25-153) (ligand)” displayed a Conc needed for 50% growth (TF1.8 Bioassay), average of 11.3 ng/mL.

For the substance “IL-4 double mutant K77A/R81A (from UniProt P05112 25-153) (ligand)”, the Conc needed for 50% growth (TF1.8 Bioassay), average was found to be 1.65 ng/mL. For “IL-4 mutant E9A (from UniProt P05112 25-153) (ligand)”, the Conc needed for 50% growth (TF1.8 Bioassay), average came out at 76.1 ng/mL.

In turn, “IL-4 mutant K12A (from UniProt P05112 25-153) (ligand)” showed a Conc needed for 50% growth (TF1.8 Bioassay), average of 0.6 ng/mL. As for “IL-4 mutant K21A (from UniProt P05112 25-153) (ligand)”, the Conc needed for 50% growth (TF1.8 Bioassay), average stood at 1.36 ng/mL.

In turn, “IL-4 mutant K42A (from UniProt P05112 25-153) (ligand)” registered a Conc needed for 50% growth (TF1.8 Bioassay), average of 0.67 ng/mL. In turn, “IL-4 mutant K77A (from UniProt P05112 25-153) (ligand)” returned a Conc needed for 50% growth (TF1.8 Bioassay), average of 1.55 ng/mL.

Regarding “IL-4 mutant K84A (from UniProt P05112 25-153) (ligand)”, the Conc needed for 50% growth (TF1.8 Bioassay), average was 2.95 ng/mL. “IL-4 mutant R53A (from UniProt P05112 25-153) (ligand)” had a Conc needed for 50% growth (TF1.8 Bioassay), average of 9.39 ng/mL. Consider “IL-4 mutant R75A (from UniProt P05112 25-153) (ligand)”, for which the Conc needed for 50% growth (TF1.8 Bioassay), average came out at 0.63 ng/mL. “IL-4 mutant R81A (from UniProt P05112 25-153) (ligand)”: the Conc needed for 50% growth (TF1.8 Bioassay), average is 4.85 ng/mL. In turn, “IL-4 mutant R85A (from UniProt P05112 25-153) (ligand)” showed a Conc needed for 50% growth (TF1.8 Bioassay), average of 0.71 ng/mL. Under “IL-4 mutant R88V (from UniProt P05112 25-153) (ligand)” stands 415 ng/mL.
